Measurements: article PMC3136439, “Auxin Response Factor2 (ARF2) and Its Regulated Homeodomain Gene HB33 Mediate Abscisic Acid Response in Arabidopsis”
Residue numbers refer to the chain shown, from its start.

Target: T1, GST-ARF2 N-terminus (ARF2-N1-470, DNA-binding domain) (Arabidopsis thaliana, UniProt Q94JM3 1-470)
T1 sequence: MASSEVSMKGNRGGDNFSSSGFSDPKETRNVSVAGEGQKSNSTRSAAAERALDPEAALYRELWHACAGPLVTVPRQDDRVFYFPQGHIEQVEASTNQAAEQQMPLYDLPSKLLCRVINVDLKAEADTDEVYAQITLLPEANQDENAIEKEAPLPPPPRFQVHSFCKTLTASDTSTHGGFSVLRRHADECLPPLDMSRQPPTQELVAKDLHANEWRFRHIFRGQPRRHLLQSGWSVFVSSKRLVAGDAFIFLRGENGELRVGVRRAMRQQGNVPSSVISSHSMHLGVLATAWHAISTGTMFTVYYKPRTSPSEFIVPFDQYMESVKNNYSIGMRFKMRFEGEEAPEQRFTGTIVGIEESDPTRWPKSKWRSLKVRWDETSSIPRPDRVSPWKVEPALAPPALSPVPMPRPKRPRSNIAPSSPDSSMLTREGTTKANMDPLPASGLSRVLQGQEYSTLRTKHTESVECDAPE
Test: EMSA; poly(dI-dC); EMSA: 5x buffer 50 mM HEPES-KOH pH 7.5, 375 mM KCl, 6.25 mM MgCl (so in the source), 1 mM DTT, 0.5 ug/mL BSA, 25% glycerol; 25 fmol probe, 6 ug protein, 1 ug poly(dI-dC) in 20 ul, room temperature 20 min; 6.5% native PAGE in TGE pH 8.3
Settings: protein: recombinant; tags: GST; chain copies: 2; blunt

B1: HB33 promoter probe (dsDNA)
DNA 1: CCAAATTGTCTCTTATAATCCGATCTCAAAGGTTGGCTTGTTGGGAGCACTGAGACATCAAAC
DNA 2: GTTTGATGTCTCAGTGCTCCCAACAAGCCAACCTTTGAGATCGGATTATAAGAGACAATTTGG
B1: binds.

B2: HB33 promoter mProbe (mP) (dsDNA)
DNA 1: B1 DNA 1 with T9A, T11A, A53T, A55T
DNA 2: B1 DNA 2 with T9A, T11A, A53T, A55T
B2: no binding.
